# From the supplement of paper PMC10567573
# B1: SNAP91 (parent)
# chain: FSTDAFSSPPQGASPVPESSLTAD
# Variants of: B1
# Test: protein stability index of a GFP-peptide fusion (GPS, HEK-293T) (PSI 1-6); higher = more stable
# Conditions: c terminus: a fixed tail appended
# 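Note: lentivirally expressed fusions sorted by FACS into six bins by GFP to DsRed ratio, PSI derived from sequencing read proportions per bin multiplied by bin number.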
row,Variant,protein stability index
1,FSTDAFSSPPQGASPNPESSLTAD,3.31
2,FSTDAFSSPPQGASPDPESSLTAD,3.12
3,FSTDAFSSPPQGASPWPESSLTAD,2.21
4,FSTDAFSSPPQGASPRPESSLTAD,3.22
5,FSTDAFSSPPQGASPIPESSLTAD,3.29
6,FSTDAFSSPPQGASPMPESSLTAD,2.68
7,FSTDAFSSPPQGASPTPESSLTAD,2.96
8,FSTDAFSSPPQGASPEPESSLTAD,4
9,FSTDAFSSPPQGASPYPESSLTAD,2.96
10,FSTDAFSSPPQGASPKPESSLTAD,2.96
11,FSTDAFSSPPQGASPLPESSLTAD,2.83
12,FSTDAFSSPPQGASPHPESSLTAD,3.17
13,FSTDAFSSPPQGASPAPESSLTAD,3.6
14,FSTDAFSSPPQGASPFPESSLTAD,2.7
15,FSTDAFSSPPQGASPCPESSLTAD,2.67
16,FSTDAFSSPPQGASPGPESSLTAD,3.66
17,FSTDAFSSPPQGASPQPESSLTAD,3.33
18,FSTDAFSSPPQGASPSPESSLTAD,2.96
19,FSTDAFSSPPQYASPVPESSLTAD,2.44
20,FSTDAFSSPPQGAMPVPESSLTAD,2.95
21,FSTDAFSSPPQGALPVPESSLTAD,3.22
22,FSTDAFSSPPQGAAPVPESSLTAD,3.57
23,FSTDAFSSPPQGATPVPESSLTAD,3.29
24,FSTDAFSSPPQGANPVPESSLTAD,3

row,Variant,protein stability index
1,FSTDAFSSPPQGAIPVPESSLTAD,2.89
2,FSTDAFSSPPQGAGPVPESSLTAD,3.3
3,FSTDAFSSPPQGAKPVPESSLTAD,2.9
4,FSTDAFSSPPQGAVPVPESSLTAD,2.63
5,FSTDAFSSPPQGADPVPESSLTAD,3.62
6,FSTDAFSSPPQGAYPVPESSLTAD,2.84
7,FSTDAFSSPPQGACPVPESSLTAD,3
8,FSTDAFSSPPQGAQPVPESSLTAD,2.75
9,FSTDAFSSPPQGAFPVPESSLTAD,2.54
10,FSTDAFSSPPQGAWPVPESSLTAD,2.69
11,FSTDAFSSPPQGARPVPESSLTAD,2.88
12,FSTDAFSSPPQGAEPVPESSLTAD,3.27
13,FSTDAFSSPPQGAHPVPESSLTAD,3.06
14,FSTDAFSSPPQGASPVHESSLTAD,3.85
15,FSTDAFSSPPQGASPVMESSLTAD,3.13
16,FSTDAFSSPPQGASPVRESSLTAD,3.31
17,FSTDAFSSPPQGASPVAESSLTAD,3.79
18,FSTDAFSSPPQGASPVSESSLTAD,3.86
19,FSTDAFSSPPQGASPVTESSLTAD,2.83
20,FSTDAFSSPPQGASPVDESSLTAD,4.14
21,FSTDAFSSPPQGASPVVESSLTAD,3.25
22,FSTDAFSSPPQGASPVGESSLTAD,3.66
23,FSTDAFSSPPQGASPVNESSLTAD,3.52
24,FSTDAFSSPPQGASPVIESSLTAD,3.04

row,Variant,protein stability index
1,FSTDAFSSPPQGASPVWESSLTAD,2.41
2,FSTDAFSSPPQGASPVKESSLTAD,2.9
3,FSTDAFSSPPQGASPVYESSLTAD,2.69
4,FSTDAFSSPPQGASPVEESSLTAD,3.89
5,FSTDAFSSPPQGASPVLESSLTAD,3.23
6,FSTDAFSSPPQGASPVFESSLTAD,2.86
7,FSTDAFSSPPQGASPVQESSLTAD,3.21
8,FSTDAFSSPPQGASPVCESSLTAD,3.01
9,FSTDAFSSPPQGASEVPESSLTAD,3.6
10,FSTDAFSSPPQGASKVPESSLTAD,2.43
11,FSTDAFSSPPQGASYVPESSLTAD,2.44
12,FSTDAFSSPPQGASWVPESSLTAD,2.37
13,FSTDAFSSPPQGASNVPESSLTAD,3.12
14,FSTDAFSSPPQGASFVPESSLTAD,2.57
15,FSTDAFSSPPQGASQVPESSLTAD,3.17
16,FSTDAFSSPPQGASGVPESSLTAD,2.83
17,FSTDAFSSPPQGASVVPESSLTAD,3.05
18,FSTDAFSSPPQGASCVPESSLTAD,2.78
19,FSTDAFSSPPQGASRVPESSLTAD,2.97
20,FSTDAFSSPPQGASLVPESSLTAD,2.64
21,FSTDAFSSPPQGASMVPESSLTAD,2.72
22,FSTDAFSSPPQGASTVPESSLTAD,3.17
23,FSTDAFSSPPQGASIVPESSLTAD,2.67
24,FSTDAFSSPPQGASDVPESSLTAD,3.27

row,Variant,protein stability index
1,FSTDAFSSPPQGASHVPESSLTAD,3.5
2,FSTDAFSSPPQGASSVPESSLTAD,3.03
3,FSTDAFSSPPQGASAVPESSLTAD,3.25
4,FSTDAFSSPPQGHSPVPESSLTAD,3.16
5,FSTDAFSSPPQGTSPVPESSLTAD,3.47
6,FSTDAFSSPPQGLSPVPESSLTAD,2.82
7,FSTDAFSSPPQGSSPVPESSLTAD,3.54
8,FSTDAFSSPPQGFSPVPESSLTAD,2.54
9,FSTDAFSSPPQGDSPVPESSLTAD,3.45
10,FSTDAFSSPPQGRSPVPESSLTAD,2.77
11,FSTDAFSSPPQGMSPVPESSLTAD,2.93
12,FSTDAFSSPPQGGSPVPESSLTAD,2.99
13,FSTDAFSSPPQGESPVPESSLTAD,3.22
14,FSTDAFSSPPQGISPVPESSLTAD,2.52
15,FSTDAFSSPPQGPSPVPESSLTAD,2.72
16,FSTDAFSSPPQGVSPVPESSLTAD,2.75
17,FSTDAFSSPPQGWSPVPESSLTAD,2.72
18,FSTDAFSSPPQGKSPVPESSLTAD,2.47
19,FSTDAFSSPPQGCSPVPESSLTAD,2.69
20,FSTDAFSSPPQGNSPVPESSLTAD,3.51
21,FSTDAFSSPPQGQSPVPESSLTAD,3.11
22,FSTDAFSSPPQGYSPVPESSLTAD,2.85
